{
  "source": "paper PMC6650940",
  "about": "“Investigations of Accessibility of T2/T3 Copper Center of Two-Domain Laccase from Streptomyces griseoflavus Ac-993” (International Journal of Molecular Sciences, 2019)",
  "key": {"purified protein [1]": {"substrate": "CCn1c(=NN=c2sc3cc(S(=O)(=O)O)ccc3n2CC)sc2cc(S(=O)(=O)O)ccc21", "experiment": "purified protein", "type": "biochemical, Streptomyces griseoflavus", "conditions": "pH 4.0, 30 °C, Britton-Robinson buffer, 1 mM CuSO4 growth medium"}, "purified protein [2]": {"substrate": "COc1cccc(OC)c1O", "experiment": "purified protein", "type": "biochemical, Streptomyces griseoflavus", "conditions": "pH 9.0, 30 °C, Britton-Robinson buffer, 1 mM CuSO4 growth medium"}},
  "data": [
    {"protein": "SgfSL wt (two-domain laccase, Streptomyces griseoflavus Small Laccase) (Streptomyces griseoflavus; I170A) (protein, Ni-NTA purified from E. coli (pQE-30); I170A and I170F from pET32-Xa/LIC with thioredoxin tag cut by factor Xa (forward primer encodes AGAAPAGG...); homotrimer) AGAAPAGGEVRRVTMYAERLAGGQMGYGLEKGKASIPGPLIELNEGDTLHVEFENTMDVPVSLHVHGLDYEISSDGTKQNKSHVEPGGTRTYTWRTHEPGRRADGTWRAGSAGYWHYHDHVVGTEHGTGGARNGLYGPVIVRRKGDVLPDATHTIVFNDMTINNRPAHTGPNFEATVGDRVEIVMITHGEYYHTFHMHGHRWADNRTGMLTGPDDPSQVIDNKICGPADSFGFQIIAGEGVGAGAWMYHCHVQSHSDMGMVGLFLVKKPDGTIPGYDPQEHAH", "values": [
      {"measurement": "Km", "setting": "purified protein [1]", "result": "630 ± 110", "unit": "µM"},
      {"measurement": "kcat", "setting": "purified protein [1]", "result": "0.7 ± 0.2", "unit": "s⁻¹"},
      {"measurement": "kcat/Km", "setting": "purified protein [1]", "result": 1110, "unit": "M⁻¹ s⁻¹"}
    ]},
    {"protein": "SgfSL wt (two-domain laccase, Streptomyces griseoflavus Small Laccase) (Streptomyces griseoflavus; I170F) (protein, Ni-NTA purified from E. coli (pQE-30); I170A and I170F from pET32-Xa/LIC with thioredoxin tag cut by factor Xa (forward primer encodes AGAAPAGG...); homotrimer) AGAAPAGGEVRRVTMYAERLAGGQMGYGLEKGKASIPGPLIELNEGDTLHVEFENTMDVPVSLHVHGLDYEISSDGTKQNKSHVEPGGTRTYTWRTHEPGRRADGTWRAGSAGYWHYHDHVVGTEHGTGGFRNGLYGPVIVRRKGDVLPDATHTIVFNDMTINNRPAHTGPNFEATVGDRVEIVMITHGEYYHTFHMHGHRWADNRTGMLTGPDDPSQVIDNKICGPADSFGFQIIAGEGVGAGAWMYHCHVQSHSDMGMVGLFLVKKPDGTIPGYDPQEHAH", "values": [
      {"measurement": "Km", "setting": "purified protein [1]", "result": "200 ± 40", "unit": "µM"},
      {"measurement": "kcat", "setting": "purified protein [1]", "result": "0.08 ± 0.01", "unit": "s⁻¹"},
      {"measurement": "kcat/Km", "setting": "purified protein [1]", "result": 400, "unit": "M⁻¹ s⁻¹"}
    ]},
    {"protein": "SgfSL wt (two-domain laccase, Streptomyces griseoflavus Small Laccase) (Streptomyces griseoflavus) (protein, Ni-NTA purified from E. coli (pQE-30); I170A and I170F from pET32-Xa/LIC with thioredoxin tag cut by factor Xa (forward primer encodes AGAAPAGG...); homotrimer) AGAAPAGGEVRRVTMYAERLAGGQMGYGLEKGKASIPGPLIELNEGDTLHVEFENTMDVPVSLHVHGLDYEISSDGTKQNKSHVEPGGTRTYTWRTHEPGRRADGTWRAGSAGYWHYHDHVVGTEHGTGGIRNGLYGPVIVRRKGDVLPDATHTIVFNDMTINNRPAHTGPNFEATVGDRVEIVMITHGEYYHTFHMHGHRWADNRTGMLTGPDDPSQVIDNKICGPADSFGFQIIAGEGVGAGAWMYHCHVQSHSDMGMVGLFLVKKPDGTIPGYDPQEHAH", "values": [
      {"measurement": "Km", "setting": "purified protein [2]", "result": "5200 ± 110", "unit": "µM"},
      {"measurement": "kcat", "setting": "purified protein [2]", "result": "0.8 ± 0.09", "unit": "s⁻¹"},
      {"measurement": "kcat/Km", "setting": "purified protein [2]", "result": 150, "unit": "M⁻¹ s⁻¹"}
    ]}
  ]
}
